# Bridges are numbered along the chain shown (N, C = ends). [ ]: non-standard residue; d: D form. Phe(4-F) = N[C@@H](Cc1ccc(F)cc1)C(=O)O; 2Nal = N[C@@H](Cc1ccc2ccccc2c1)C(=O)O; Cit = NC(=O)NCCC[C@H](N)C(=O)O
# B1: Example 71 (peptide)
# peptide: cyclo(YRICRG[dP]RR[2Nal]CYQK[dP]P)
# modifications: disulfide 4-11
# SMILES: CC[C@H](C)[C@@H]1NC(=O)[C@H](CCCNC(=N)N)NC(=O)[C@H](Cc2ccc(O)cc2)NC(=O)[C@@H]2CCCN2C(=O)[C@H]2CCCN2C(=O)[C@H](CCCCN)NC(=O)[C@H](CCC(N)=O)NC(=O)[C@H](Cc2ccc(O)cc2)NC(=O)[C@@H]2CSSC[C@H](NC1=O)C(=O)N[C@@H](CCCNC(=N)N)C(=O)NCC(=O)N1CCC[C@@H]1C(=O)N[C@@H](CCCNC(=N)N)C(=O)N[C@@H](CCCNC(=N)N)C(=O)N[C@@H](Cc1ccc3ccccc3c1)C(=O)N2
# B2: Example 73 (peptide)
# peptide: cyclo(YRWCRG[dP]RR[2Nal]CYQK[dP]P)
# modifications: disulfide 4-11
# SMILES: N=C(N)NCCC[C@@H]1NC(=O)[C@@H]2CSSC[C@H](NC(=O)[C@H](Cc3ccc4ccccc4c3)NC(=O)[C@H](CCCNC(=N)N)NC(=O)[C@H](CCCNC(=N)N)NC(=O)[C@H]3CCCN3C(=O)CNC1=O)C(=O)N[C@@H](Cc1ccc(O)cc1)C(=O)N[C@@H](CCC(N)=O)C(=O)N[C@@H](CCCCN)C(=O)N1CCC[C@@H]1C(=O)N1CCC[C@H]1C(=O)N[C@@H](Cc1ccc(O)cc1)C(=O)N[C@@H](CCCNC(=N)N)C(=O)N[C@@H](Cc1c[nH]c3ccccc13)C(=O)N2
# B3: Example 70 (peptide)
# peptide: cyclo(YRHCRG[dP]RR[2Nal]CYQK[dP]P)
# modifications: disulfide 4-11
# SMILES: N=C(N)NCCC[C@@H]1NC(=O)[C@@H]2CSSC[C@H](NC(=O)[C@H](Cc3ccc4ccccc4c3)NC(=O)[C@H](CCCNC(=N)N)NC(=O)[C@H](CCCNC(=N)N)NC(=O)[C@H]3CCCN3C(=O)CNC1=O)C(=O)N[C@@H](Cc1ccc(O)cc1)C(=O)N[C@@H](CCC(N)=O)C(=O)N[C@@H](CCCCN)C(=O)N1CCC[C@@H]1C(=O)N1CCC[C@H]1C(=O)N[C@@H](Cc1ccc(O)cc1)C(=O)N[C@@H](CCCNC(=N)N)C(=O)N[C@@H](Cc1c[nH]cn1)C(=O)N2
# B4: Example 74 (peptide)
# peptide: cyclo(YRPCRG[dP]RR[2Nal]CYQK[dP]P)
# modifications: disulfide 4-11
# SMILES: N=C(N)NCCC[C@@H]1NC(=O)[C@@H]2CSSC[C@H](NC(=O)[C@H](Cc3ccc4ccccc4c3)NC(=O)[C@H](CCCNC(=N)N)NC(=O)[C@H](CCCNC(=N)N)NC(=O)[C@H]3CCCN3C(=O)CNC1=O)C(=O)N[C@@H](Cc1ccc(O)cc1)C(=O)N[C@@H](CCC(N)=O)C(=O)N[C@@H](CCCCN)C(=O)N1CCC[C@@H]1C(=O)N1CCC[C@H]1C(=O)N[C@@H](Cc1ccc(O)cc1)C(=O)N[C@@H](CCCNC(=N)N)C(=O)N1CCC[C@H]1C(=O)N2
# B5: Example 69 (peptide)
# peptide: cyclo(YRRCRG[dP]RR[2Nal]CYQK[dP]P)
# modifications: disulfide 4-11
# SMILES: N=C(N)NCCC[C@@H]1NC(=O)[C@@H]2CSSC[C@H](NC(=O)[C@H](Cc3ccc4ccccc4c3)NC(=O)[C@H](CCCNC(=N)N)NC(=O)[C@H](CCCNC(=N)N)NC(=O)[C@H]3CCCN3C(=O)CNC1=O)C(=O)N[C@@H](Cc1ccc(O)cc1)C(=O)N[C@@H](CCC(N)=O)C(=O)N[C@@H](CCCCN)C(=O)N1CCC[C@@H]1C(=O)N1CCC[C@H]1C(=O)N[C@@H](Cc1ccc(O)cc1)C(=O)N[C@@H](CCCNC(=N)N)C(=O)N[C@@H](CCCNC(=N)N)C(=O)N2
# B6: Example 66 (peptide)
# peptide: cyclo(WR[Cit]CRG[dP]RR[2Nal]CYQK[dP]P)
# modifications: disulfide 4-11
# SMILES: N=C(N)NCCC[C@@H]1NC(=O)[C@@H]2CSSC[C@H](NC(=O)[C@H](Cc3ccc4ccccc4c3)NC(=O)[C@H](CCCNC(=N)N)NC(=O)[C@H](CCCNC(=N)N)NC(=O)[C@H]3CCCN3C(=O)CNC1=O)C(=O)N[C@@H](Cc1ccc(O)cc1)C(=O)N[C@@H](CCC(N)=O)C(=O)N[C@@H](CCCCN)C(=O)N1CCC[C@@H]1C(=O)N1CCC[C@H]1C(=O)N[C@@H](Cc1c[nH]c3ccccc13)C(=O)N[C@@H](CCCNC(=N)N)C(=O)N[C@@H](CCCNC(N)=O)C(=O)N2
# B7: Example 67 (peptide)
# peptide: cyclo(TR[Cit]CRG[dP]RR[2Nal]CYQK[dP]P)
# modifications: disulfide 4-11
# SMILES: C[C@@H](O)[C@@H]1NC(=O)[C@@H]2CCCN2C(=O)[C@H]2CCCN2C(=O)[C@H](CCCCN)NC(=O)[C@H](CCC(N)=O)NC(=O)[C@H](Cc2ccc(O)cc2)NC(=O)[C@@H]2CSSC[C@H](NC(=O)[C@H](CCCNC(N)=O)NC(=O)[C@H](CCCNC(=N)N)NC1=O)C(=O)N[C@@H](CCCNC(=N)N)C(=O)NCC(=O)N1CCC[C@@H]1C(=O)N[C@@H](CCCNC(=N)N)C(=O)N[C@@H](CCCNC(=N)N)C(=O)N[C@@H](Cc1ccc3ccccc3c1)C(=O)N2
# B8: Example 76 (peptide)
# peptide: cyclo(YR[Cit]CRG[dP][Phe(4-F)]R[2Nal]CYQK[dP]P)
# modifications: disulfide 4-11
# SMILES: N=C(N)NCCC[C@@H]1NC(=O)[C@@H]2CSSC[C@H](NC(=O)[C@H](Cc3ccc4ccccc4c3)NC(=O)[C@H](CCCNC(=N)N)NC(=O)[C@H](Cc3ccc(F)cc3)NC(=O)[C@H]3CCCN3C(=O)CNC1=O)C(=O)N[C@@H](Cc1ccc(O)cc1)C(=O)N[C@@H](CCC(N)=O)C(=O)N[C@@H](CCCCN)C(=O)N1CCC[C@@H]1C(=O)N1CCC[C@H]1C(=O)N[C@@H](Cc1ccc(O)cc1)C(=O)N[C@@H](CCCNC(=N)N)C(=O)N[C@@H](CCCNC(N)=O)C(=O)N2
# B9: Example 3 (peptide)
# peptide: cyclo(YR[Cit]FRRR[2Nal]FY[Cit]K[dP]P)
# SMILES: N=C(N)NCCC[C@@H]1NC(=O)[C@H](CCCNC(=N)N)NC(=O)[C@H](Cc2ccccc2)NC(=O)[C@H](CCCNC(N)=O)NC(=O)[C@H](CCCNC(=N)N)NC(=O)[C@H](Cc2ccc(O)cc2)NC(=O)[C@@H]2CCCN2C(=O)[C@H]2CCCN2C(=O)[C@H](CCCCN)NC(=O)[C@H](CCCNC(N)=O)NC(=O)[C@H](Cc2ccc(O)cc2)NC(=O)[C@H](Cc2ccccc2)NC(=O)[C@H](Cc2ccc3ccccc3c2)NC(=O)[C@H](CCCNC(=N)N)NC1=O
# B10: Example 68 (peptide)
# peptide: cyclo(ER[Cit]CRG[dP]RR[2Nal]CYQK[dP]P)
# modifications: disulfide 4-11
# SMILES: N=C(N)NCCC[C@@H]1NC(=O)[C@@H]2CSSC[C@H](NC(=O)[C@H](Cc3ccc4ccccc4c3)NC(=O)[C@H](CCCNC(=N)N)NC(=O)[C@H](CCCNC(=N)N)NC(=O)[C@H]3CCCN3C(=O)CNC1=O)C(=O)N[C@@H](Cc1ccc(O)cc1)C(=O)N[C@@H](CCC(N)=O)C(=O)N[C@@H](CCCCN)C(=O)N1CCC[C@@H]1C(=O)N1CCC[C@H]1C(=O)N[C@@H](CCC(=O)O)C(=O)N[C@@H](CCCNC(=N)N)C(=O)N[C@@H](CCCNC(N)=O)C(=O)N2
# B11: Example 72 (peptide)
# peptide: cyclo(YRYCRG[dP]RR[2Nal]CYQK[dP]P)
# modifications: disulfide 4-11
# SMILES: N=C(N)NCCC[C@@H]1NC(=O)[C@@H]2CSSC[C@H](NC(=O)[C@H](Cc3ccc4ccccc4c3)NC(=O)[C@H](CCCNC(=N)N)NC(=O)[C@H](CCCNC(=N)N)NC(=O)[C@H]3CCCN3C(=O)CNC1=O)C(=O)N[C@@H](Cc1ccc(O)cc1)C(=O)N[C@@H](CCC(N)=O)C(=O)N[C@@H](CCCCN)C(=O)N1CCC[C@@H]1C(=O)N1CCC[C@H]1C(=O)N[C@@H](Cc1ccc(O)cc1)C(=O)N[C@@H](CCCNC(=N)N)C(=O)N[C@@H](Cc1ccc(O)cc1)C(=O)N2
# B12: Example 4 (peptide)
# peptide: cyclo(YR[Cit]VRRR[2Nal]FY[Cit]K[dP]P)
# SMILES: CC(C)[C@@H]1NC(=O)[C@H](CCCNC(N)=O)NC(=O)[C@H](CCCNC(=N)N)NC(=O)[C@H](Cc2ccc(O)cc2)NC(=O)[C@@H]2CCCN2C(=O)[C@H]2CCCN2C(=O)[C@H](CCCCN)NC(=O)[C@H](CCCNC(N)=O)NC(=O)[C@H](Cc2ccc(O)cc2)NC(=O)[C@H](Cc2ccccc2)NC(=O)[C@H](Cc2ccc3ccccc3c2)NC(=O)[C@H](CCCNC(=N)N)NC(=O)[C@H](CCCNC(=N)N)NC(=O)[C@H](CCCNC(=N)N)NC1=O
# B13: Example 65 (peptide)
# peptide: cyclo(IR[Cit]CRG[dP]RR[2Nal]CYQK[dP]P)
# modifications: disulfide 4-11
# SMILES: CC[C@H](C)[C@@H]1NC(=O)[C@@H]2CCCN2C(=O)[C@H]2CCCN2C(=O)[C@H](CCCCN)NC(=O)[C@H](CCC(N)=O)NC(=O)[C@H](Cc2ccc(O)cc2)NC(=O)[C@@H]2CSSC[C@H](NC(=O)[C@H](CCCNC(N)=O)NC(=O)[C@H](CCCNC(=N)N)NC1=O)C(=O)N[C@@H](CCCNC(=N)N)C(=O)NCC(=O)N1CCC[C@@H]1C(=O)N[C@@H](CCCNC(=N)N)C(=O)N[C@@H](CCCNC(=N)N)C(=O)N[C@@H](Cc1ccc3ccccc3c1)C(=O)N2
# B14: Example 75 (peptide)
# peptide: cyclo(YRECRG[dP]RR[2Nal]CYQK[dP]P)
# modifications: disulfide 4-11
# SMILES: N=C(N)NCCC[C@@H]1NC(=O)[C@@H]2CSSC[C@H](NC(=O)[C@H](Cc3ccc4ccccc4c3)NC(=O)[C@H](CCCNC(=N)N)NC(=O)[C@H](CCCNC(=N)N)NC(=O)[C@H]3CCCN3C(=O)CNC1=O)C(=O)N[C@@H](Cc1ccc(O)cc1)C(=O)N[C@@H](CCC(N)=O)C(=O)N[C@@H](CCCCN)C(=O)N1CCC[C@@H]1C(=O)N1CCC[C@H]1C(=O)N[C@@H](Cc1ccc(O)cc1)C(=O)N[C@@H](CCCNC(=N)N)C(=O)N[C@@H](CCC(=O)O)C(=O)N2
# Target: human CXCR4 (human, UniProt P61073 1-352)
# Test: cell-based or functional assay
# human CXCR4, sequence (P61073 whole entry): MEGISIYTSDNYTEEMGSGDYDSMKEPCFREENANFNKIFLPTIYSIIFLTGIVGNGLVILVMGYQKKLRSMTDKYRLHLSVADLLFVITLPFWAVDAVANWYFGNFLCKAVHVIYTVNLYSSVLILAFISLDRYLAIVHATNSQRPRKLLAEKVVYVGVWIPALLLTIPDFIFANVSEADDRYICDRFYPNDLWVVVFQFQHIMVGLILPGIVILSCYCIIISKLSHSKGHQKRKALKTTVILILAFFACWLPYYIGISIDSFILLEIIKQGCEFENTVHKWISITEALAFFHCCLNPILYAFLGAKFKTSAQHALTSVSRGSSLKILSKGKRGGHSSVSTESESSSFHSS
Binder,IC50 (nM) Ca2+ assay (method 2),IC50 (nM) Ca2+ assay (method 1)
B1,2.7 nM,–
B2,8.8 nM,–
B3,19.5 nM,–
B4,19.5 nM,–
B5,1.8 nM,–
B6,3.8 nM,–
B7,2.4 nM,–
B8,5.6 nM,–
B9,–,1000 nM
B10,1.1 nM,–
B11,3.9 nM,–
B12,–,2540 nM
B13,3.9 nM,–
B14,3.5 nM,–

# — US20150087577A1 (POLYPHOR, published 2015)
